T1: human dihydrolipoamide dehydrogenase (E3) (human, UniProt P09622 36-509)
T1 sequence: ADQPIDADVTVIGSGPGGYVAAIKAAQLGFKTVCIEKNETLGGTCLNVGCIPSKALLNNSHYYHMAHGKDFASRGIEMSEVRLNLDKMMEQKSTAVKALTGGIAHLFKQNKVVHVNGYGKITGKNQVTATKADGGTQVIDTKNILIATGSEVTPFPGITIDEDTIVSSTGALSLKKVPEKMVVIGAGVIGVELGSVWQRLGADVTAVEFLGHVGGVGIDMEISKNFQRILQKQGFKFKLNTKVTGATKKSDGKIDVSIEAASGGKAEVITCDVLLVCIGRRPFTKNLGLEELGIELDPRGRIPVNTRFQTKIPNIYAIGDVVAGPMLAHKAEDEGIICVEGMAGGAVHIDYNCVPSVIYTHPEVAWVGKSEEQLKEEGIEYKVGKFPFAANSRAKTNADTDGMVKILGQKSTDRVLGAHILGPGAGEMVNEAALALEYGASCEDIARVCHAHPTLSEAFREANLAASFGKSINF


Experiments:
[1] = target: X di-domain (XDD) of human E3 binding protein: lipoyl domain and subunit binding domain (human); experiment: ITC
[2] = target: T1, human dihydrolipoamide dehydrogenase …; experiment: native gel or EMSA

dH [1]	stoichiometry N [1]	stoichiometry N [2]	Molecule
-12.1 kcal/mol	0.5 E3:XDD	–	human dihydrolipoamide dehydrogenase (E3) (from UniProt P09622 36-509) (enzyme)
–	–	2 XSBD:E3	X subunit binding domain (XSBD) of human E3 binding protein (domain or fragment) QISIPVKKEHIPGTLRFRLSPAARNILEKHSLDASQGTATGPRGIFTKEDALKLVQLKQTGKITE
